Results as given in article PMC10783490, “Biochemical and cellular insights into the Baz2B protein, a non-catalytic subunit of the chromatin remodeling complex” (Nucleic Acids Research, 2023).
Numbering of substitutions follows the chain as printed. One block for each binder: values may come before it.

How the values were obtained:
[1] = target: T1, BRD^Baz2B L2127V (human, UniProt Q9UIF8 2054-2168, L2127V, fluorescent label (Monolith NT Protein Labelling Kit RED-NHS)); assay: MST; 100 nM fluorescently labelled (RED-NHS) BRD^Baz2B, peptide (H3 or H3K14ac) titrated; MST buffer 150 mM Tris-HCl, 50 mM NaCl, 10 mM MgCl2, pH 7.6, 0.0025% Pluronic, 200 ng/ul BSA; 25 C, 20% MST power; at least triplicate; conditions: both partners purified
T1 construct: bromodomain (BRD) of human Baz2B with a cancer-associated point mutation, made on pNIC28-Bsa4-BAZ2B-BRD; Same limits as m1; mutation found in breast cancer; source: E. coli BL21(DE3)-R3-pRARE2, purified (Ni-NTA, Sephadex 75)
T1 sequence: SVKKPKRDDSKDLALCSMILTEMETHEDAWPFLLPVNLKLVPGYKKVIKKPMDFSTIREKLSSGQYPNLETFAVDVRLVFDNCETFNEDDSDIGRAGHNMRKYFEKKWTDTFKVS

[2] = target: T2, BRD^Baz2B K2098N (human, UniProt Q9UIF8 2054-2168, K2098N, fluorescent label (Monolith NT Protein Labelling Kit RED-NHS)); assay: as above; conditions: both partners purified
T2 construct: bromodomain (BRD) of human Baz2B with a cancer-associated point mutation, made on pNIC28-Bsa4-BAZ2B-BRD; Same limits as m1; mutation found in multiple myeloma; source: E. coli BL21(DE3)-R3-pRARE2, purified (Ni-NTA, Sephadex 75)
T2 sequence: T1 sequence with K45N, V74L

[3] = target: T3, BRD^Baz2B D2143N (human, UniProt Q9UIF8 2054-2168, D2143N, fluorescent label (Monolith NT Protein Labelling Kit RED-NHS)); assay: as above; conditions: both partners purified
T3 construct: bromodomain (BRD) of human Baz2B with a cancer-associated point mutation, made on pNIC28-Bsa4-BAZ2B-BRD; Same limits as m1; mutation found in breast invasive carcinoma; source: E. coli BL21(DE3)-R3-pRARE2, purified (Ni-NTA, Sephadex 75)
T3 sequence: T1 sequence with V74L, D90N

[4] = target: T4, His6-BRD^Baz2B (bromodomain of human Baz2B, wild-type) (human, UniProt Q9UIF8 2054-2168, fluorescent label (Monolith NT Protein Labelling Kit RED-NHS)); assay: as above; conditions: both partners purified
T4 construct: bromodomain (BRD) of human Baz2B, from plasmid pNIC28-Bsa4-BAZ2B-BRD; also called BAZ2B-BRD; source: E. coli BL21(DE3)-R3-pRARE2, purified (Ni-NTA, Sephadex 75)
T4 sequence: T1 sequence with V74L

[5] = target: T5, BRD^Baz2B F2139C (human, UniProt Q9UIF8 2054-2168, F2139C, fluorescent label (Monolith NT Protein Labelling Kit RED-NHS)); assay: as above; conditions: both partners purified
T5 construct: bromodomain (BRD) of human Baz2B with a cancer-associated point mutation, made on pNIC28-Bsa4-BAZ2B-BRD; Same limits as m1; mutation found in endometrial cancer; source: E. coli BL21(DE3)-R3-pRARE2, purified (Ni-NTA, Sephadex 75)
T5 sequence: T1 sequence with V74L, F86C

[6] = target: T6, BRD^Baz2B T2138I (human, UniProt Q9UIF8 2054-2168, T2138I, fluorescent label (Monolith NT Protein Labelling Kit RED-NHS)); assay: as above; conditions: both partners purified
T6 construct: bromodomain (BRD) of human Baz2B with a cancer-associated point mutation, made on pNIC28-Bsa4-BAZ2B-BRD; Same limits as m1; mutation found in multiple myeloma; source: E. coli BL21(DE3)-R3-pRARE2, purified (Ni-NTA, Sephadex 75)
T6 sequence: T1 sequence with V74L, T85I

[7] = target: T7, BRD^Baz2B L2073V (human, UniProt Q9UIF8 2054-2168, L2073V, fluorescent label (Monolith NT Protein Labelling Kit RED-NHS)); assay: as above; conditions: both partners purified
T7 construct: bromodomain (BRD) of human Baz2B with a cancer-associated point mutation, made on pNIC28-Bsa4-BAZ2B-BRD; Same limits as m1; mutation found in pancreatic cancer (COSMIC/ICGC); source: E. coli BL21(DE3)-R3-pRARE2, purified (Ni-NTA, Sephadex 75)
T7 sequence: T1 sequence with L20V, V74L

[8] = target: T8, TAM-AT1-AT2 Baz2B (Homo sapiens, UniProt Q9UIF8 721-884); assay: EMSA; EMSA: 20 mM HEPES pH 7.5, 30 mM KCl, 1 mM EDTA, 10 mM (NH4)2SO4, 1 mM DTT, 4 C, 10 nM probe; MST: same plus 0.1 ug/ml BSA, 5 nM probe, 25 C; GST-AT-hook and bromodomain EMSA as in cited refs; conditions: protein: recombinant; tags: His6; label: 5' Cy5
T8 sequence: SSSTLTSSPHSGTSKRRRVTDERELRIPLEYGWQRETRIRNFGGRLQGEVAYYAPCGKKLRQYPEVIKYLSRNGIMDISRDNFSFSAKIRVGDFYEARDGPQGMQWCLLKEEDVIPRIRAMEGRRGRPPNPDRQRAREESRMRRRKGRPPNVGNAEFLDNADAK

[9] = target: T8, TAM-AT1-AT2 Baz2B; assay: MST; EMSA: 20 mM HEPES pH 7.5, 30 mM KCl, 1 mM EDTA, 10 mM (NH4)2SO4, 1 mM DTT, 4 C, 10 nM probe; MST: same plus 0.1 ug/ml BSA, 5 nM probe, 25 C; GST-AT-hook and bromodomain EMSA as in cited refs; conditions: protein: recombinant; tags: His6; label: 5' Cy5

Kd [1]: 30 µM
Kd [2]: 24 µM
Kd [3]: 133 µM
Kd [4]: 16 µM
Kd [5]: 20 µM
Kd [6]: 94 µM
Kd [7]: 78 µM
B1: H3K14ac peptide (Ac-TARKSTGGK(ac)APRKQL-NH2) (peptide)
peptide: Ac-TARKSTGGK(Ac)APRKQL-NH2
notes: N-terminal tail of histone H3, residues 6-20; also called acetylated H3 tail peptide; acetylated at K14 (K14ac) N-terminal H3 histone tail peptide; source: synthetic peptide, bought: alta Bioscience

Binder: GGGGGGUCAUUUUUGGGGAAACCCUGUCUCUUUCC (structured_RNA) [pRNAmini]
Kd [8]: 136 nM
Kd [9]: 288 nM
